Source: patent US20080171037A1, “Apo-3 ligand polypeptide” (Genentech, Inc., priority 1997, published 2008)
Entries after “also recorded” stand apart in the source; their conditions may differ.

What was measured:
NF-κB [1] = assay: NF-κB activation, electrophoretic mobility shift assay, HeLa cells; assay type: cell-based, human; conditions: FIG. 5A
Method: In a first assay, HeLa cells (ATCC CCL 22) were treated with His-tagged soluble Apo-3 Ligand (described in Example 3) (10 μg/ml) in duplicate or with vehicle for 30 minutes. His-tagged Apo-2 ligand (see WO 97/25428) or TNF-alpha (Pennica et al., Nature, 312:724-729 (1984)) were assayed for comparison. Nuclear extracts were prepared and 1 μg of nuclear protein was reacted with a ^32P-labelled NF-κB-specific synthetic oligonucleotide probe

[2] = system: MCF-7 breast carcinoma cells; assay: Apoptosis in MCF-7 breast carcinoma cells (microscopy, Hoechst dye); assay type: cell-based, human; conditions: MCF-7 cells pre-treated with CHX 10 μg/ml, ligand 2 μg/ml, 14 hours, FIG. 9A
Method: Human MCF-7 breast carcinoma cells (ATCC HTB 22) were pre-treated for 1 hour with cyclohexamide (CHX) (10 μg/ml) and incubated for 14 hours with soluble Apo-3 Ligand (2 μg/ml; prepared as described in Example 3 above) alone or together with zVAD-fmk (Research Biochemicals) (100 nM). The cells were then stained with Hoechst dye and photographed by phase (FIG. 9A, left) and by fluorescence (FIG. 9A, right) microscopy. In FIG. 9A, arrowheads indicate some of the apoptotic cells (left) and their condensed nuclei (right).
In a separate experiment, the MCF-7 cells were pre-treated for 1 hour with buffer or CHX, incubated for an additional 14 hours with the indicated concentrations of soluble Apo-3 Ligand (see FIG. 9B), and apoptotic or live cells were score by microscopy.

[3] = system: HeLa S3 cervical carcinoma cells; assay: Apoptosis in HeLa S3 cells (DNA fragmentation analysis); assay type: cell-based, human; conditions: HeLa S3 cells pre-treated with CHX, FIG. 9C
Method: HeLa S3 cervical carcinoma cells (ATCC CCL 2.2) were similarly pre-treated with CHX and then incubated with soluble Apo-3 Ligand (prepared as described in Example 3 above) alone or together with zVAD-fmk or DEVD-fmk (Research Biochemicals) (100 nM). The treated cells were then subjected to DNA fragmentation analysis.

NF-κB [4] = assay: NF-κB activation, electrophoretic mobility shift assay, 293 cells; assay type: cell-based, human; conditions: 3 hours, FIG. 5B and 5C
HeLa cells = assay: Apoptosis in HeLa cells transfected with full length Apo-3 Ligand (FACS, annexin V binding); assay type: cell-based, human; conditions: HeLa cells transfected with plasmid encoding amino acids 1 to 249, CD4-positive cells, FIG. 6
Method: A pRK5 plasmid (see EP 307,247) encoding Apo-3 Ligand polypeptide (amino acids 1 to 249 of FIG. 1), or empty pRK5 plasmid, was transiently transfected along with a pRK5 plasmid encoding human CD4 as a marker for transfection into human HeLa cells by electroporation, and the cells were plated in tissue culture dishes. Four hours later, the caspase inhibitor z-VAD-fmk (Research Biochemicals) (200 μM) was added to some of the dishes. Twenty hours later, apoptosis was determined by FACS analysis of cells positive for the CD4 marker by measuring binding of fluorescein isothiocyanate (FITC)-conjugated annexin V (Brand Applications) (see WO 97/25428).

[5] = system: Jun N-terminal kinase (JNK/SAPK); assay: JNK/SAPK activity in 293 cells transfected with full length Apo-3 Ligand; assay type: cell-based, human; conditions: 293 cells transfected, FIG. 7
Method: The pRK5 plasmid encoding Apo-3 Ligand polypeptide or empty pRK5 plasmid (see Example 6 above) was transiently transfected into human 293 cells (ATCC CCL 1573) by calcium phosphate precipitation. Four hours later, one set of cells was treated with z-VAD-fmk (Research Biochemicals) (200 μM). Twenty hours later, the cells were harvested and analyzed for activity of Jun N-terminal kinase (JNK; also called stress activated protein kinase or SAPK) using a commercially available JNK/SAPK assay kit (New England Biolabs), and according to the manufacturer's instructions.

Apo-3 = molecular target: T1, Apo-3 (Homo sapiens, UniProt Q93038); assay: Co-immunoprecipitation binding assay with Flag-tagged soluble Apo-3; conditions: ligand and receptor 1 μg/ml, FIG. 8A
T1 construct: made in house
T1 sequence (Q93038 25-199 limits assumed): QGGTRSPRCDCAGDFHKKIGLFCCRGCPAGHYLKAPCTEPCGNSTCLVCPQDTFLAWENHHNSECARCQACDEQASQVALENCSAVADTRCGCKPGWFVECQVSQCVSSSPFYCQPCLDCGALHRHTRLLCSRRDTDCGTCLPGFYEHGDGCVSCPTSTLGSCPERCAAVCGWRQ
Method: A binding assay was conducted to determine if Apo-3 Ligand binds Apo-3 receptor. Apo-3 receptor was described by Marsters et al., Curr. Biol., 6:750 (1996). Other investigators have also referred to Apo-3 as DR3 [Chinnayian et al., Science, 274:990 (1996)], Wsl-1 [Kitson et al., Nature, 384:372 (1996)], TRAMP [Bodmer et al., Immunity, 6:79 (1997)], or LARD [Screaton et al., PNAS, 94:4615-4619 (1997)].
(§1) A Flag-epitope tagged soluble Apo-3 was produced (as described for DR5 in Sheridan et al., Science, 277:818 (1997)) and tested in a co-immunoprecipitation assay to examine its ability to associate with a histidine tagged soluble Apo-3 Ligand (see Example 3 above). […] The respective ligands (1 μg/ml) and receptors (1 μg/ml) were incubated for 1 hour at room temperature. The reaction mixtures were subjected to precipitation with anti-Flag antibody conjugated to sepharose beads (Kodak) (FIG. 8A, left) or nickel-sepharose (Qiagen) (FIG. 8A, right) by overnight incubation at 4° C. according to manufacturer's instructions and resolved by gel electrophoresis. The ligands were visualized by Western blot analysis with nickel-conjugated horseradish peroxidase. In FIG. 8A, molecular weight markers (kDa) are indicated on the left.

DR5 = molecular target: T2, DR5 (Homo sapiens, UniProt O14763); assay: Co-immunoprecipitation binding assay with DR5 ECD; conditions: ligand and receptor 1 μg/ml, FIG. 8A
T2 construct: the ECD of the Apo-2L receptor, DR5; made in house
Method: as §1

MCF-7 cells = assay: Apoptosis by soluble Apo-3 Ligand in MCF-7 cells transfected with caspase inhibitors or FADD mutant; assay type: cell-based, human; conditions: CHX 1 hour, soluble Apo-3 Ligand 2 μg/ml 14 hours, FIG. 9D
Method: MCF-7 cells were transfected by lipofection with empty vector (pRK5; EP 307,247) or with expression plasmid encoding the caspase inhibitors, p35 or CrmA, or a dominant-negative FADD mutant (Tularik, South San Francisco, Calif.). Sixteen hours later, the cells were pre-treated with CHX for 1 hour, and then treated for an additional 14 hours with soluble Apo-3 Ligand (2 μg/ml).

T2 sequence (O14763 56-184 limits assumed): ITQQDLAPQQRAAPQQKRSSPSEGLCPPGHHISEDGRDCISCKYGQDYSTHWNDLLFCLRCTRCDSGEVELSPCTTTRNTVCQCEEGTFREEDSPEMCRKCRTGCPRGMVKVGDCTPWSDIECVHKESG

B1: soluble Apo-3 Ligand (protein)
chain: MGHHHHHHHHHHSSGHIDDDDKHMRASLSAQEPAQEELVAEEDQDPSELNPQTEESQDPAPFLNRLVRPRRSAPKGRKTRARRAIAAHYEVHPRPGQDGAQAGVDGTVSGWEEARINSSSPLRYNRQIGEFIVTRAGLYYLYCQVHFDEGKAVYLKLDLLVDGVLALRCLEEFSATAASSLGPQLRLCQVSGLLALRPGSSLRIRTLPWAHLKAAPFLTYFGLFQVH
NF-κB activation (NF-κB [1]; 10 μg/ml, 30 minutes): induced significant NF-κB activation | level of NF-κB activation compared with Apo-2 ligand (NF-κB [1]): comparable | level of NF-κB activation compared with TNF-alpha (NF-κB [1]): weaker | apoptosis (morphological changes and chromatin condensation) [2]: induced marked apoptosis | apoptosis (internucleosomal DNA fragmentation) [3]: induced marked apoptosis

B2: Apo-3 Ligand: Novel human TNF family polypeptide of 249 amino acids encoded by clone DNA30879-1152 (ATCC 209358) (protein)
chain: B1 chain
NF-κB activation (NF-κB [4]): NF-κB activation | level of apoptosis compared with pRK5 (control) (HeLa cells): about a doubling of the level of apoptosis | level of JNK/SAPK activity compared with pRK5 control [5]: detectable increase; also recorded: increased JNK/SAPK activity | binding to Apo-3 (Apo-3): bound to Apo-3 | binding to Apo-3 (Apo-3; listed as Apo-3L): specifically binds to Apo-3 | binding to DR5 (DR5): not to DR5 | apoptosis (morphological changes and chromatin condensation) [2]: induced apoptosis

B3: p35: virus-derived caspase inhibitor, expressed from a transfected plasmid (protein, UniProt P08160 1-299, looked up)
Early 35 kDa protein: MCVIFPVEIDVSQTIIRDCQVDKQTRELVYINKIMNTQLTKPVLMMFNISGPIRSVTRKNNNLRDRIKSKVDEQFDQLERDYSDQMDGFHDSIKYFKDEHYSVSCQNGSVLKSKFAKILKSHDYTDKKSIEAYEKYCLPKLVDERNDYYVAVCVLKPGFENGSNQVLSFEYNPIGNKVIVPFAHEINDTGLYEYDVVAYVDSVQFDGEQFEEFVQSLILPSSFKNSEKVLYYNEASKNKSMIYKALEFTTESSWGKSEKYNWKIFCNGFIYDKKSKVLYVKLHNVTSALNKNVILNTIK
effect of transfection on induction of apoptosis by Apo-3 Ligand (MCF-7 cells): blocked induction of apoptosis
